{
  "source": "IntAct's records for PubMed 23572552",
  "parents": {"B1": {"name": "Golgi resident protein GCP60 (Homo sapiens), Q9H3P7 (parent)", "chain": "MAAVLNAERLEVSVDGLTLSPDPEERPGAEGAPLLPPPLPPPSPPGSGRGPGASGEQPEPGEAAAGGAAEEARRLEQRWGFGLEELYGLALRFFKEKDGKAFHPTYEEKLKLVALHKQVLMGPYNPDTCPEVGFFDVLGNDRRREWAALGNMSKEDAMVEFVKLLNRCCHLFSTYVASHKIEKEEQEKKRKEEEERRRREEEERERLQKEEEKRRREEEERLRREEEERRRIEEERLRLEQQKQQIMAALNSQTAVQFQQYAAQQYPGNYEQQQILIRQLQEQHYQQYMQQLYQVQLAQQQAALQKQQEVVVAGSSLPTSSKVNATVPSNMMSVNGQAKTHTDSSEKELEPEAAEEALENGPKESLPVIAAPSMWTRPQIKDFKEKIQQDADSVITVGRGEVVTVRVPTHEEGSYLFWEFATDNYDIGFGVYFEWTDSPNTAVSVHVSESSDDDEEEEENIGCEEKAKKNANKPLLDEIVPVYRRDCHEEVYAGSHQYPGRGVYLLKFDNSYSLWRSKSVYYRVYYTR", "partner": "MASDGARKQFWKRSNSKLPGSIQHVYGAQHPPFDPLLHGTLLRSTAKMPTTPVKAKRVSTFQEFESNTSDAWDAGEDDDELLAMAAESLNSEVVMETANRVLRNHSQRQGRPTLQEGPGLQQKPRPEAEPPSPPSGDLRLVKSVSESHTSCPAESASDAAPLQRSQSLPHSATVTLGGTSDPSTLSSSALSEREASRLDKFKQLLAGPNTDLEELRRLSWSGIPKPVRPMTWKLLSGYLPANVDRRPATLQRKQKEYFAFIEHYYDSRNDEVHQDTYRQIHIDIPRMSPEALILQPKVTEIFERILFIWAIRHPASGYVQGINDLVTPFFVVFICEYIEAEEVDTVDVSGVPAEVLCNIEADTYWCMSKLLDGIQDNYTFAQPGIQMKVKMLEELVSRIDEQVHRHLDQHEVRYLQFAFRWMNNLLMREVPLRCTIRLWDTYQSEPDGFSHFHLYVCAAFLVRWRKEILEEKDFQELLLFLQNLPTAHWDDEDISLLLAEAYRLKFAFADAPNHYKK"}, "B2": {"name": "TBC1 domain family member 22B (Homo sapiens), Q9NU19 (parent)", "chain": "MAAENSKQFWKRSAKLPGSIQPVYGAQHPPLDPRLTKNFIKERSKVNTVPLKNKKASSFHEFARNTSDAWDIGDDEEEDFSSPSFQTLNSKVALATAAQVLENHSKLRVKPERSQSTTSDVPANYKVIKSSSDAQLSRNSSDTCLRNPLHKQQSLPLRPIIPLVARISDQNASGAPPMTVREKTRLEKFRQLLSSQNTDLDELRKCSWPGVPREVRPITWRLLSGYLPANTERRKLTLQRKREEYFGFIEQYYDSRNEEHHQDTYRQIHIDIPRTNPLIPLFQQPLVQEIFERILFIWAIRHPASGYVQGINDLVTPFFVVFLSEYVEEDVENFDVTNLSQDMLRSIEADSFWCMSKLLDGIQDNYTFAQPGIQKKVKALEELVSRIDEQVHNHFRRYEVEYLQFAFRWMNNLLMRELPLRCTIRLWDTYQSEPEGFSHFHLYVCAAFLIKWRKEILDEEDFQGLLMLLQNLPTIHWGNEEIGLLLAEAYRLKYMFADAPNHYRR"}, "B3": {"name": "Golgi resident protein GCP60 (Homo sapiens), Q9H3P7 (parent)", "chain": "B1 chain", "partner": "B2 chain"}},
  "data": [
    {"variants_of": "B1", "conditions": "with tb22a_human TBC1D22A", "values": [
      {"variant": "P267A;G268A;N269A", "effect of a mutation on the interaction": "disrupting interaction strength"},
      {"variant": "E192A;E193A;E194A;E195A", "effect of a mutation on the interaction": "with no effect"},
      {"variant": "L164A;L165A;N166A;R167A", "effect of a mutation on the interaction": "with no effect"},
      {"variant": "E225A;E226A;E227A;E228A", "effect of a mutation on the interaction": "with no effect"},
      {"variant": "Y270A;E271A;Q272A;Q273A", "effect of a mutation on the interaction": "with no effect"},
      {"variant": "I246A;M247A", "effect of a mutation on the interaction": "disrupting interaction strength"},
      {"variant": "R236A;L237A;R238A;L239A", "effect of a mutation on the interaction": "with no effect"},
      {"variant": "E184A;E185A;Q186A;E187A", "effect of a mutation on the interaction": "with no effect"},
      {"variant": "C168A;C169A;H170A", "effect of a mutation on the interaction": "with no effect"},
      {"variant": "E200A;E201A;E202A;E203A", "effect of a mutation on the interaction": "with no effect"}
    ]},
    {"variants_of": "B1", "conditions": "with tb22a_human TBC1D22A", "remark": "another data set of the same source", "values": [
      {"variant": "G494A;S495A;H496A", "effect of a mutation on the interaction": "with no effect"},
      {"variant": "S414A;Y415A;L416A", "effect of a mutation on the interaction": "with no effect"},
      {"variant": "F433A;E434A;W435A", "effect of a mutation on the interaction": "with no effect"},
      {"variant": "Q264A;Q265A;Y266A", "effect of a mutation on the interaction": "with no effect"},
      {"variant": "S511A;Y512A;S513A", "effect of a mutation on the interaction": "with no effect"},
      {"variant": "E282A;Q283A;H284A;Y285A", "effect of a mutation on the interaction": "disrupting interaction strength"}
    ]},
    {"variants_of": "B2", "conditions": "with gcp60_human ACBD3, Q9H3P7", "values": [
      {"variant": "T143E", "effect of a mutation on the interaction": "with no effect"},
      {"variant": "S58E", "effect of a mutation on the interaction": "with no effect"},
      {"variant": "S116E;T117E;T118E;S119E", "effect of a mutation on the interaction": "with no effect"},
      {"variant": "Q99A", "effect of a mutation on the interaction": "with no effect"},
      {"variant": "S168E", "effect of a mutation on the interaction": "with no effect"},
      {"variant": "K91A;V92A", "effect of a mutation on the interaction": "with no effect"},
      {"variant": "V100A;L101A", "effect of a mutation on the interaction": "disrupting interaction strength"},
      {"variant": "L94A;T96A", "effect of a mutation on the interaction": "with no effect"},
      {"variant": "S140E;S141E", "effect of a mutation on the interaction": "with no effect"},
      {"variant": "L88A;N89A;S90A", "effect of a mutation on the interaction": "decreasing interaction strength"},
      {"variant": "E102A;N103A;H104A", "effect of a mutation on the interaction": "with no effect"},
      {"variant": "S114E", "effect of a mutation on the interaction": "with no effect"}
    ]},
    {"variants_of": "B3", "conditions": "with tb22b_human TBC1D22B", "values": [
      {"variant": "F258A", "effect of a mutation on the interaction": "decreasing interaction strength"},
      {"variant": "Q260A", "effect of a mutation on the interaction": "with no effect"},
      {"variant": "Q257A", "effect of a mutation on the interaction": "decreasing interaction strength"},
      {"variant": "Q259A", "effect of a mutation on the interaction": "with no effect"},
      {"variant": "F417A;W418A;E419A;F420A", "effect of a mutation on the interaction": "with no effect"},
      {"variant": "Q244A", "effect of a mutation on the interaction": "with no effect"},
      {"variant": "S511A", "effect of a mutation on the interaction": "decreasing interaction strength"},
      {"variant": "G494A;S495A;H496A", "effect of a mutation on the interaction": "with no effect"},
      {"variant": "Y285A", "effect of a mutation on the interaction": "decreasing interaction strength"},
      {"variant": "I246A", "effect of a mutation on the interaction": "decreasing interaction strength"},
      {"variant": "H284A", "effect of a mutation on the interaction": "disrupting interaction strength"},
      {"variant": "Q286A", "effect of a mutation on the interaction": "with no effect"},
      {"variant": "L276A", "effect of a mutation on the interaction": "decreasing interaction strength"},
      {"variant": "K243A", "effect of a mutation on the interaction": "with no effect"},
      {"variant": "E282A;Q283A;H284A;Y285A", "effect of a mutation on the interaction": "disrupting interaction strength"},
      {"variant": "Q264A;Q265A;Y266A", "effect of a mutation on the interaction": "with no effect"},
      {"variant": "S414A;Y415A;L416A", "effect of a mutation on the interaction": "with no effect"},
      {"variant": "T254A", "effect of a mutation on the interaction": "with no effect"},
      {"variant": "I275A", "effect of a mutation on the interaction": "with no effect"},
      {"variant": "Y288A", "effect of a mutation on the interaction": "disrupting interaction strength"},
      {"variant": "Y261A", "effect of a mutation on the interaction": "decreasing interaction strength"},
      {"variant": "Q253A", "effect of a mutation on the interaction": "with no effect"},
      {"variant": "Q287A", "effect of a mutation on the interaction": "with no effect"},
      {"variant": "F433A;E434A;W435A", "effect of a mutation on the interaction": "with no effect"},
      {"variant": "Q245A", "effect of a mutation on the interaction": "with no effect"},
      {"variant": "S344A;S345A", "effect of a mutation on the interaction": "with no effect"},
      {"variant": "S511A;Y512A;S513A", "effect of a mutation on the interaction": "with no effect"},
      {"variant": "V256A;Q257A;F258A", "effect of a mutation on the interaction": "disrupting interaction strength"}
    ]},
    {"variants_of": "B3", "conditions": "with tb22b_human TBC1D22B", "remark": "another data set of the same source", "values": [
      {"variant": "Q259A;Q260A;Y261A", "effect of a mutation on the interaction": "with no effect"},
      {"variant": "P267A;G268A;N269A", "effect of a mutation on the interaction": "disrupting interaction strength"}
    ]}
  ]
}
